According to the supplement of paper PMC9876800:

Tested on: peptide library, one residue held at a place counted from the S/T acceptor
Assay: relative phosphorylation of the sub-library (ratio to the mean residue at this position); human; higher = residue favoured
In short: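 Each biotinylated degenerate peptide sub-library fixed one residue at one position around a central Ser/Thr and was incubated with a purified recombinant kinase, a human or orthologue construct, in 384-well plates. The 90 min reactions, under kinase-specific conditions, contained 50 μM peptide and 50 μM ATP spiked with γ-32P-ATP. Phosphorylation was read by phosphorimaging spots on streptavidin membranes and quantifying them by densitometry. Relative sub-library phosphorylation expresses each value as a ratio to the mean residue at that position.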

Sequence of PAK2, construct: aa3-end (Q13177 3-524, looked up): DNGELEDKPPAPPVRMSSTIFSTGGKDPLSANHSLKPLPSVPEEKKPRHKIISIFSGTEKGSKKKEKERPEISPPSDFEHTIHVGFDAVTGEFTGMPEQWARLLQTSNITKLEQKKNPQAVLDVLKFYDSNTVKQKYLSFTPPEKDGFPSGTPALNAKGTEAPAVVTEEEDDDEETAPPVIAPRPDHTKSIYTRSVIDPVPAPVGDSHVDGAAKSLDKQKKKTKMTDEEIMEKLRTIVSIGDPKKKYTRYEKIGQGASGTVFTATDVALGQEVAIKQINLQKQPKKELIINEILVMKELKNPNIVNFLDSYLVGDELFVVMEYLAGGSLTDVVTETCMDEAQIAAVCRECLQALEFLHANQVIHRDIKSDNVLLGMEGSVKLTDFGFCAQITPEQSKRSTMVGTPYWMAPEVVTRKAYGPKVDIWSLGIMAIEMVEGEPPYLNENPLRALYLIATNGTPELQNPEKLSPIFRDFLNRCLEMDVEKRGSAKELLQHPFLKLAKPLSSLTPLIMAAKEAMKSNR

PAK2, construct: aa3-end (from UniProt Q13177)
relative phosphorylation
Settings	at +1	at +2	at +3	at +4	at -1	at -2	at -3	at -4	at -5
A fixed	0.794	0.823	0.781	0.846	0.808	0.606	0.786	0.97	1.05
D fixed	0.359	0.391	0.855	0.98	0.562	0.197	0.506	0.844	0.724
E fixed	0.432	0.37	0.921	0.988	0.522	0.222	0.469	0.891	0.602
F fixed	1.18	1.76	1.77	0.95	0.956	0.464	0.699	0.729	0.803
G fixed	0.916	0.643	0.868	1.01	0.668	0.479	0.891	1.06	1.2
H fixed	0.997	1.4	1.14	1.07	1.29	1.44	1.2	1.09	1.16
I fixed	1.22	1.22	1.03	0.87	0.796	0.606	0.583	0.673	0.741
K fixed	1.01	0.452	0.623	0.938	1.41	1.12	1.78	1.58	1.81
L fixed	1.16	1.37	1.13	1.02	1.18	0.391	0.561	0.729	0.707
M fixed	1.64	1.14	1.07	1.07	1.17	0.416	0.599	0.885	0.672
N fixed	0.738	0.734	0.847	1.22	1.07	0.503	0.977	1.02	1.04
P fixed	0.222	0.625	0.903	1.38	0.723	0.935	0.894	0.944	0.926
Q fixed	1.06	0.797	0.754	1.08	1.08	0.572	0.827	0.901	0.889
R fixed	1.19	0.658	0.657	0.821	1.72	7.1	3.91	2.26	2.31
V fixed	1.2	1.01	0.906	0.787	0.763	0.642	0.557	0.688	0.694
W fixed	1.65	1.18	1.33	1.15	1.03	0.485	0.954	0.887	0.801
Y fixed	1.23	2.42	1.42	0.824	1.25	0.821	0.801	0.84	0.858
pThr fixed	0.66	0.551	0.597	1.12	0.392	0.495	0.74	1.04	0.931
pTyr fixed	0.822	2.1	1.11	0.856	0.652	0.379	0.8	0.71	0.876
